We go through one substance from publication PMC3796484.

The target of this assay is spliced X-box binding protein (Xbp1s), P17861-2. Briefly: two-hybrid assay (Gal4 UAS-CAT reporter in transfected cells). The settings on record: CAT activity normalized to β-galactosidase internal control; P=.008; parent: est. 3.4; read off a plot.
Chain of spliced X-box binding protein (Xbp1s), P17861-2 (P17861 other isoform, or with tags, fused parts or gaps): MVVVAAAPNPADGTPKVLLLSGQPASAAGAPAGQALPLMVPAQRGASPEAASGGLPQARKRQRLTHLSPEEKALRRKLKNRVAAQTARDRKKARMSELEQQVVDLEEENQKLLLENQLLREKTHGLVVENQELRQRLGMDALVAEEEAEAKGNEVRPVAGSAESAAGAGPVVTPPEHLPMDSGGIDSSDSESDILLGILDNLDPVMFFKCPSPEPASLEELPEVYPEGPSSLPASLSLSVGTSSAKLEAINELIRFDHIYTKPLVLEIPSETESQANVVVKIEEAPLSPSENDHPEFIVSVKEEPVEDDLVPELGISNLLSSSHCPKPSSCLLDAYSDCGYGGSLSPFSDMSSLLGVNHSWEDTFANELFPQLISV

Consider “Zhangfei linked to the DNA-binding domain of yeast GAL4 (from UniProt Q9NS37) ZF(L/A)”, for which the other: Ratio (with:without activator) was 1.
